{"source": "the nanobody polyreactivity screen of Harvey et al. (2022)", "data": [{"assay": "yeast display, Sf9 membrane polyspecificity reagent, FACS + sequencing; frameworks hold sequencing errors", "in_short": "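Nanobodies came from a synthetic yeast display library in Saccharomyces cerevisiae BJ5465, induced with galactose for 36–48 hours and stained for 1 hour at 4 °C with 10% biotinylated, detergent-solubilized Sf9 membrane reagent. Cells were enriched on streptavidin microbeads and then FACS-sorted, with low and high (top ~1%) gates set on anti-HA fluorescence for expression and streptavidin fluorescence for reagent binding. Each polyreactivity label reflects the gate a clone came from. Genes were amplified by colony PCR, sequenced by MiSeq 2 × 250 and filtered by CDR length.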", "values": [{"sequence": "QVQLVESGGGLVQAGGSLRLSCAASGNIFSDNAMGWYRQAPGKERELVAAITSGGSTIYADSVKGRFTISRDNAKNTVYLQMNSLKPEDTAVYYCAADISYRHFLFDFWGQGTQVTVSS", "polyreactivity (PSR sort gate)": "low polyreactivity"}, {"sequence": "QVQLVESGGGLVQAGGSLRLSCAASGNIFSDYAMGWYRQAPGKERELVAAISSGGNTNYADSVKRRFSISRDNAKNTVYLEMNSLKPEDTAVYYCAAVYNTTYTLLPEYSDVKYYYWGQGTQVTVSS", "polyreactivity (PSR sort gate)": "low polyreactivity"}, {"sequence": "QVQLVESGGGLVQAGGSLRLSCAASGNIFSFNDMGWYRQAPGKERELVAAITSSDSTNYADSVKGRFTISRDNAKNTVYLQMNSLKPEDTAVFYCATEILTAARDTVVYQFYLGYYYWGQGTQVTVSS", "polyreactivity (PSR sort gate)": "low polyreactivity"}, {"sequence": "QVQLVESGGGLVQAGGSLRLSCAASGNIFSFNDMGWYRQAPGKERELVAGITTSESTNYADSVKGRFTISRDNAKNTVYLQMNSLKPEDTAVYYCATEILTAARDTVVYQFYLGYYYWGQGTQVTVSS", "polyreactivity (PSR sort gate)": "low polyreactivity"}, {"sequence": "QVQLVESGGGLVQAGGSLRLSCAASGNIFSRNAMGWYRQAPGKERELVASIDNSTSGTYYADSVKGRFTISRDNAKNTVYLQMKSLKPEDTAVYYCAATPLVDGSSIPREGDYWGQGTQVSVSS", "polyreactivity (PSR sort gate)": "low polyreactivity"}, {"sequence": "QVQLVESGGGLVQAGGSLRLSCAASGNIFSRYAMGWYRQAPGKERELVASISRGGRTNYADSVKGRFTISRDNAKNTVYLQMNSLKPEDTAVYYCAKGGKGYWHPTGPYPFNYWGQGTQVTVSS", "polyreactivity (PSR sort gate)": "high polyreactivity"}, {"sequence": "QVQLVESGGGLVQAGGSLRLSCAASGNIFSSNAMGWYRQAPGKERELDAAITRSGGSTYYADSVKGRFTISRDNAKNTVYLQMNSLKPEDTAVYYCAARHYPRNSWGYDYWGQGTQVTVSS", "polyreactivity (PSR sort gate)": "high polyreactivity"}, {"sequence": "QVQLVESGGGLVQAGGSLRLSCAASGNIFSYNAMAWYRQAPGKERELVAAITTSSGRTYYADSVKGRFTISRDIAKNTVYLQMNSLKPEVTAVYYCNAVQRYQMGYWGQGTQVTVSS", "polyreactivity (PSR sort gate)": "high polyreactivity"}, {"sequence": "QVQLVESGGGLVQAGGSLRLSCAASGNIFSYNAMGWYRQAPGKEREFVAAITFSSDRTYYADSVKGRFTISRDNAKNTVYLQMNSLKPEDTAVYYCAADTRYINYKRYYYWGQGTQVTVSS", "polyreactivity (PSR sort gate)": "high polyreactivity"}, {"sequence": "QVQLVESGGGLVQAGGSLRLSCAASGNIFSYYAMGWYRQAPGKERELVAAIYTGGSTYYADSVKGRFTISRDNAKNTVYLQMNSLKPEDTEVYYCAASGLNLRQDYDYWGQGTQVTVSS", "polyreactivity (PSR sort gate)": "low polyreactivity"}, {"sequence": "QVQLVESGGGLVQAGGSLRLSCAASGNIFVEYAMGWYRPAPGKERELVAAITNSGGRTHYSDSVKGRFTISRDNAKNTVYLQMNSLKPEDSEVYFCAAPTKYRSRRYYWGQGTQVTVSS", "polyreactivity (PSR sort gate)": "high polyreactivity"}, {"sequence": "QVQLVESGGGLVQAGGSLRLSCAASGNIFVEYAMGWYRQAPGKERELVAAITNSGGRTHYADSVKGRFTISRDNAKNTVYLQMNSLKPEDTAVYYCAAPTKYRSRRYYWGQGTQVTVSS", "polyreactivity (PSR sort gate)": "high polyreactivity"}, {"sequence": "QVQLVESGGGLVQAGGSLRLSCAASGNIFVFYVMGWYRQAPGKERELVASISSTGNTYYADSVKGRFTISRDNAKNTVYLQMNSLKPEDTAVYYCAADSHQNVSGWLRWPRMDYWGQGTQVTVSS", "polyreactivity (PSR sort gate)": "low polyreactivity"}, {"sequence": "QVQLVESGGGLVQAGGSLRLSCAASGNIFVINAMGWYRQAPGKERELVAAINWTGGNTYYADSVKGRFTISRDNAKNTFYLQMNSLKPEDTAVYYSAADRRWFVWGLGYWGQGTQVTVSS", "polyreactivity (PSR sort gate)": "low polyreactivity"}, {"sequence": "QVQLVESGGGLVQAGGSLRLSCAASGNIFVRYTMGWYRQAPGTERELVARITSGGSTYYADSVKGRFTISRDNAKNTVYLQMNSLKPEDTAVYYCAAAIGTRLYSYYYWGQGTQVTVSS", "polyreactivity (PSR sort gate)": "high polyreactivity"}, {"sequence": "QVQLVESGGGLVQAGGSLRLSCAASGNIFVTYAMGWYRQAPGKERELVAGITSSDDSTYYADSVKGRFTISRDNAKNTVYLQMNSLKPEDPAVYYCATYYWEVGIGQYYYWGQGTQVTVSS", "polyreactivity (PSR sort gate)": "low polyreactivity"}, {"sequence": "QVQLVESGGGLVQAGGSLRLSCAASGNIFVVNAMGWYRQAPGKERELVAGITTNGGRTFYADSVKGRFTISRDNAKNTVYLQINSLKPEDTAVYYWNARHGRHRRTRFAKYDYWGQGTQVTVSS", "polyreactivity (PSR sort gate)": "high polyreactivity"}]}]}
